Results as given in patent publication US10064926B2, “Peptides and combination of peptides for use in immunotherapy against hepatocellular carcinoma (HCC) and other cancers” (Immatics biotechnologies GmbH, priority 2014, dated 2018).

Target: HLA-A*02 (Homo sapiens, UniProt P04439, D140Y/D185E/D98H/E176V/E277Q/G131W/G231S/I119V/I121R/I166T/I218V/N151K/N90K/P208A/P217A/Q86G/Q94H/R138H/R169H)
Experiment: UV-ligand exchange / peptide binding to MHC class I (beta2m ELISA)
Settings: peptide exchange yield
Description: Candidate peptides for T cell based therapies according to the present invention were further tested for their MHC binding capacity (affinity). The individual peptide-MHC complexes were produced by UV-ligand exchange, where a UV-sensitive peptide is cleaved upon UV-irradiation, and exchanged with the peptide of interest as analyzed. Only peptide candidates that can effectively bind and stabilize the peptide-receptive MHC molecules prevent dissociation of the MHC complexes. To determine the yield of the exchange reaction, an ELISA was performed based on the detection of the light chain (β2m) of stabilized MHC complexes. The assay was performed as generally described in Rodenko et al. (Rodenko B, Toebes M, Hadrup S R, van Esch W J, Molenaar A M, Schumacher T N, Ovaa H. Generation of peptide-MHC class I complexes through UV-mediated ligand exchange. Nat Protoc. 2006; 1(3):1120-32).
96 well MAXISorp plates (NUNC) were coated over night with 2 ug/ml streptavidin in PBS at room temperature, washed 4× and blocked for 1 h at 37° C. in 2% BSA containing blocking buffer. Refolded HLA-A*0201/MLA-001 monomers served as standards, covering the range of 15-500 ng/ml. Peptide-MHC monomers of the UV-exchange reaction were diluted 100 fold in blocking buffer. Samples were incubated for 1 h at 37° C., washed four times, incubated with 2 ug/ml HRP conjugated anti-β2m for 1 h at 37° C., washed again and detected with TMB solution that is stopped with […]. Absorption was measured at 450 nm. Candidate peptides that show a high exchange yield (preferably higher than 50%, most preferred higher than 75%) are generally preferred for a generation and production of antibodies or fragments thereof, and/or T cell receptors or fragments thereof, as they show sufficient avidity to the MHC molecules and prevent dissociation of the MHC complexes.

[1] = Table 10A, UV-ligand exchange, β2m ELISA

| Peptide exchange (MHC class I binding score) [1] | Peptide exchange (MHC class I binding score) (Table 10B, HLA-A*02 peptides) | Substance |
| --- | --- | --- |
| ++++ (>=75% = ++++) | “++++” (≥75% = ++++) | 223 (FLFNTENKLLL; listed as Homo sapiens) [compound 223] |
|  | “++” (≥20% = ++) | 88 (RLIDRIKTV; listed as Homo sapiens) [compound 88] |
|  | “+++” (≥50 = +++) | 115 (VVLDDKDYFL; listed as Homo sapiens) [compound 115] |
|  | “+++” (≥50 = +++) | 30 (YLGEGPRMV; listed as Homo sapiens) [compound 30] |
|  | “++++” (≥75% = ++++) | 45 (ALQDQLVLV; listed as Homo sapiens) [compound 45] |
|  | “+++” (≥50 = +++) | 131 (ALDSGAFQSV; listed as Homo sapiens) [compound 131] |
|  | “+++” (≥50 = +++) | 117 (YAFPKSITV; listed as Homo sapiens) [compound 117] |
|  | “++++” (≥75% = ++++) | 134 (ALLETNPYLL; listed as Homo sapiens) [compound 134] |
|  | “++++” (≥75% = ++++) | 69 (KLLDEVTYLEA; listed as Homo sapiens) [compound 69] |
|  | “+++” (≥50 = +++) | 94 (RMSDVVKGV; listed as Homo sapiens) [compound 94] |
|  | “+++” (≥50 = +++) | 248 (KLNDLIQRL; listed as Homo sapiens) [compound 248] |
|  | “+++” (≥50 = +++) | 28 (TLQDHLNSL; listed as Homo sapiens) [compound 28] |
|  | “++++” (≥75% = ++++) | 112 (VLGEVKVGV; listed as Homo sapiens) [compound 112] |
|  | “++++” (≥75% = ++++) | 113 (VLMDKLVEL; listed as Homo sapiens) [compound 113] |
|  | “+++” (≥50 = +++) | 280 (ATLNIIHSV; listed as Homo sapiens) [compound 280] |
|  | “++++” (≥75% = ++++) | 268 (KLYQEVEIASV; listed as Homo sapiens) [compound 268] |
|  | “+++” (≥50 = +++) | 277 (ALLEENSTPQL; listed as Homo sapiens) [compound 277] |
|  | “++++” (≥75% = ++++) | 22 (RIAGIRGIQGV; listed as Homo sapiens) [compound 22] |
|  | “+++” (≥50 = +++) | 166 (SILDIVTKV; listed as Homo sapiens) [compound 166] |
|  | “+++” (≥50 = +++) | 168 (SLAVLVPIV; listed as Homo sapiens) [compound 168] |

Continued, substance first:

| Substance | Peptide exchange (MHC class I binding score) [1] | Peptide exchange (MHC class I binding score) (Table 10B, HLA-A*02 peptides) |
| --- | --- | --- |
| 288 (LLDDSLVSI; listed as Homo sapiens) [compound 288] |  | “+++” (≥50 = +++) |
| 293 (FLASESLIKQI; listed as Homo sapiens) [compound 293] |  | “++” (≥20% = ++) |
| 235 (KLFEEIREI; listed as Homo sapiens) [compound 235] |  | “++++” (≥75% = ++++) |
| 114 (VLSQVYSKV; listed as Homo sapiens) [compound 114] |  | “+++” (≥50 = +++) |
| 242 (GLFAPVHKV; listed as Homo sapiens) [compound 242] |  | “+++” (≥50 = +++) |
| 253 (RVPPPPQSV; listed as Homo sapiens) [compound 253] |  | “++” (≥20% = ++) |
| 249 (LLLGERVAL; listed as Homo sapiens) [compound 249] |  | “++++” (≥75% = ++++) |
| 21 (QLIEVSSPITL; listed as Homo sapiens) [compound 21] |  | “++++” (≥75% = ++++) |
| 82 (NVFDGLVRV; listed as Homo sapiens) [compound 82] |  | “+++” (≥50 = +++) |
| 158 (RIISGLVKV; listed as Homo sapiens) [compound 158] |  | “++” (≥20% = ++) |
| 300 (TLAQQPTAV; listed as Homo sapiens) [compound 300] |  | “++” (≥20% = ++) |
| 292 (RIPAYFVTV; listed as Homo sapiens) [compound 292] |  | “++” (≥20% = ++) |
| 67 (KLKETIQKL; listed as Homo sapiens) [compound 67] |  | “+++” (≥50 = +++) |
| 296 (SLLSGRISTL; listed as Homo sapiens) [compound 296] |  | “+++” (≥50 = +++) |
| 256 (SLFQGVEFHYV; listed as Homo sapiens) [compound 256] |  | “+++” (≥50 = +++) |
| 157 (QLLPNLRAV; listed as Homo sapiens) [compound 157] |  | “+++” (≥50 = +++) |
| 19 (FLEETKATV; listed as Homo sapiens) [compound 19] |  | “+++” (≥50 = +++) |
| 106 (TLAAIIHGA; listed as Homo sapiens) [compound 106] |  | “+++” (≥50 = +++) |
| 98 (SLLSPEHLQYL; listed as Homo sapiens) [compound 98] |  | “+++” (≥50 = +++) |
| 91 (RLPDIPLRQV; listed as Homo sapiens) [compound 91] |  | “+++” (≥50 = +++) |
| 122 (YLSQAADGAKVL; listed as Homo sapiens) [compound 122] |  | “++” (≥20% = ++) |
| 167 (SLAESSFDV; listed as Homo sapiens) [compound 167] |  | “+++” (≥50 = +++) |

| Substance | Peptide exchange (MHC class I binding score) [1] | Peptide exchange (MHC class I binding score) (Table 10B, HLA-A*02 peptides) |
| --- | --- | --- |
| 251 (RLFADILNDV; listed as Homo sapiens) [compound 251] |  | “++++” (≥75% = ++++) |
| 75 (KQMEPLHAV; listed as Homo sapiens) [compound 75] |  | “++” (≥20% = ++) |
| 139 (ALSSKPAEV; listed as Homo sapiens) [compound 139] |  | “+++” (≥50 = +++) |
| 95 (SICNGVPMV; listed as Homo sapiens) [compound 95] |  | “+++” (≥50 = +++) |
| 51 (GLAEELVRA; listed as Homo sapiens) [compound 51] |  | “++” (≥20% = ++) |
| 78 (LLIDDEYKV; listed as Homo sapiens) [compound 78] |  | “+++” (≥50 = +++) |
| 20 (KLSNVLQQV; listed as Homo sapiens) [compound 20] |  | “++++” (≥75% = ++++) |
| 171 (SLIPAVLTV; listed as Homo sapiens) [compound 171] |  | “+++” (≥50 = +++) |
| 287 (LIGEFLEKV; listed as Homo sapiens) [compound 287] |  | “++++” (≥75% = ++++) |
| 107 (TLGQFYQEV; listed as Homo sapiens) [compound 107] |  | “++++” (≥75% = ++++) |
| 162 (RLMSALTQV; listed as Homo sapiens) [compound 162] |  | “++” (≥20% = ++) |
| 299 (ALLRVTPFI; listed as Homo sapiens) [compound 299] |  | “+++” (≥50 = +++) |
| 8 (KLLEEATISV; listed as Homo sapiens) [compound 8] | +++ (50%-75% = +++) | “+++” (≥50 = +++) |
| 60 (ILSPLSVAL; listed as Homo sapiens) [compound 60] |  | “++++” (≥75% = ++++) |
| 263 (VLYPSLKEI; listed as Homo sapiens) [compound 263] |  | “+++” (≥50 = +++) |
| 108 (TLLKKISEA; listed as Homo sapiens) [compound 108] |  | “+++” (≥50 = +++) |
| 291 (QLIDYERQL; listed as Homo sapiens) [compound 291] |  | “+++” (≥50 = +++) |
| 125 (ALYGRLEVV; listed as Homo sapiens) [compound 125] |  | “++++” (≥75% = ++++) |
| 81 (NLASFIEQVAV; listed as Homo sapiens) [compound 81] |  | “+++” (≥50 = +++) |
| 278 (ALTSVVVTL; listed as Homo sapiens) [compound 278] |  | “++++” (≥75% = ++++) |
| 241 (FVLPLLGLHEA; listed as Homo sapiens) [compound 241] |  | “++” (≥20% = ++) |
| 161 (RLLDEQFAV; listed as Homo sapiens) [compound 161] |  | “+++” (≥50 = +++) |
